Measurements reported in the Human Domainome abundance scans (Beltran et al. 2025).
± gives the uncertainty stated by the source.

B1: Receptor-interacting serine/threonine-protein kinase 2, residues 438 to 518; numbered along this chain, O43353 (parent)
chain: QWIQSKREDIVNQMTEACLNQSLDALLSRDLIMKEDYELVSTKPTRTSKVRQLLDTTDIQGEEFAKVIVQKLKDNKQMGLQ

Variants of: B1
Assay: abundance fitness (aPCA) (normalised: wild type 0, dead -1); higher = more abundant; growth selection in yeast, the domain comes from the species named
Settings: Homo sapiens
Work on QWIQSKREDIVNQMTEACLGQSLDALLSRDLIMKEDYELVSTKPTRTSKVRQLLDTTDIQGEEFAKVIVQKLKDNKQMGLQ yielded an abundance fitness of -0.159 ± 0.072.
With QWIQSKREDIVNQMTEACLPQSLDALLSRDLIMKEDYELVSTKPTRTSKVRQLLDTTDIQGEEFAKVIVQKLKDNKQMGLQ the abundance fitness was -0.829 ± 0.24.
QWIQSKREDIVNQMTEACLTQSLDALLSRDLIMKEDYELVSTKPTRTSKVRQLLDTTDIQGEEFAKVIVQKLKDNKQMGLQ gave an abundance fitness of -0.29 ± 0.17.
For QWIQSKREDIVNQMTEACLVQSLDALLSRDLIMKEDYELVSTKPTRTSKVRQLLDTTDIQGEEFAKVIVQKLKDNKQMGLQ, the abundance fitness was -0.274 ± 0.11.
QWIQSKREDIVNQMTEACLAQSLDALLSRDLIMKEDYELVSTKPTRTSKVRQLLDTTDIQGEEFAKVIVQKLKDNKQMGLQ showed an abundance fitness of -0.048 ± 0.21.
QWIQSKREDIVNQMTEACLKQSLDALLSRDLIMKEDYELVSTKPTRTSKVRQLLDTTDIQGEEFAKVIVQKLKDNKQMGLQ showed an abundance fitness of 0.117 ± 0.22.
For QWIQSKREDIVNQMTEACLNQQLDALLSRDLIMKEDYELVSTKPTRTSKVRQLLDTTDIQGEEFAKVIVQKLKDNKQMGLQ, the abundance fitness was -0.796 ± 0.15.
Variant QWIQSKREDIVNQMTEACLNQDLDALLSRDLIMKEDYELVSTKPTRTSKVRQLLDTTDIQGEEFAKVIVQKLKDNKQMGLQ has an abundance fitness of -0.386 ± 0.15.
For QWIQSKREDIVNQMTEACLNQFLDALLSRDLIMKEDYELVSTKPTRTSKVRQLLDTTDIQGEEFAKVIVQKLKDNKQMGLQ, the abundance fitness was -0.945 ± 0.39.
With QWIQSKREDIVNQMTEACLNQLLDALLSRDLIMKEDYELVSTKPTRTSKVRQLLDTTDIQGEEFAKVIVQKLKDNKQMGLQ the abundance fitness was -0.057 ± 0.072.
With QWIQSKREDIVNQMTEACLNQNLDALLSRDLIMKEDYELVSTKPTRTSKVRQLLDTTDIQGEEFAKVIVQKLKDNKQMGLQ the abundance fitness was -0.71 ± 0.46.
Work on QWIQSKREDIVNQMTEACLNQYLDALLSRDLIMKEDYELVSTKPTRTSKVRQLLDTTDIQGEEFAKVIVQKLKDNKQMGLQ yielded an abundance fitness of -0.911 ± 0.25.
Work on QWIQSKREDIVNQMTEACLNQCLDALLSRDLIMKEDYELVSTKPTRTSKVRQLLDTTDIQGEEFAKVIVQKLKDNKQMGLQ yielded an abundance fitness of -0.017 ± 0.13.
Work on QWIQSKREDIVNQMTEACLNQALDALLSRDLIMKEDYELVSTKPTRTSKVRQLLDTTDIQGEEFAKVIVQKLKDNKQMGLQ yielded an abundance fitness of 0.066 ± 0.051.
For QWIQSKREDIVNQMTEACLNQVLDALLSRDLIMKEDYELVSTKPTRTSKVRQLLDTTDIQGEEFAKVIVQKLKDNKQMGLQ, the abundance fitness was 0.1 ± 0.069.
In the case of QWIQSKREDIVNQMTEACLNQRLDALLSRDLIMKEDYELVSTKPTRTSKVRQLLDTTDIQGEEFAKVIVQKLKDNKQMGLQ, the abundance fitness is reported as -1.05 ± 0.13.
With QWIQSKREDIVNQMTEACLNQPLDALLSRDLIMKEDYELVSTKPTRTSKVRQLLDTTDIQGEEFAKVIVQKLKDNKQMGLQ the abundance fitness was -0.621 ± 0.059.
QWIQSKREDIVNQMTEACLNQILDALLSRDLIMKEDYELVSTKPTRTSKVRQLLDTTDIQGEEFAKVIVQKLKDNKQMGLQ gave an abundance fitness of 0.565 ± 0.49.
In the case of QWIQSKREDIVNQMTEACLNQGLDALLSRDLIMKEDYELVSTKPTRTSKVRQLLDTTDIQGEEFAKVIVQKLKDNKQMGLQ, the abundance fitness is reported as -0.5 ± 0.075.
QWIQSKREDIVNQMTEACLNQSMDALLSRDLIMKEDYELVSTKPTRTSKVRQLLDTTDIQGEEFAKVIVQKLKDNKQMGLQ showed an abundance fitness of -0.274 ± 0.2.
For QWIQSKREDIVNQMTEACLNQSKDALLSRDLIMKEDYELVSTKPTRTSKVRQLLDTTDIQGEEFAKVIVQKLKDNKQMGLQ, the abundance fitness was -0.559 ± 0.3.
In the case of QWIQSKREDIVNQMTEACLNQSFDALLSRDLIMKEDYELVSTKPTRTSKVRQLLDTTDIQGEEFAKVIVQKLKDNKQMGLQ, the abundance fitness is reported as -0.764 ± 0.24.
In the case of QWIQSKREDIVNQMTEACLNQSADALLSRDLIMKEDYELVSTKPTRTSKVRQLLDTTDIQGEEFAKVIVQKLKDNKQMGLQ, the abundance fitness is reported as -0.397 ± 0.11.
In the case of QWIQSKREDIVNQMTEACLNQSHDALLSRDLIMKEDYELVSTKPTRTSKVRQLLDTTDIQGEEFAKVIVQKLKDNKQMGLQ, the abundance fitness is reported as -0.174 ± 0.13.
For QWIQSKREDIVNQMTEACLNQSQDALLSRDLIMKEDYELVSTKPTRTSKVRQLLDTTDIQGEEFAKVIVQKLKDNKQMGLQ, the abundance fitness was -0.424 ± 0.14.
Variant QWIQSKREDIVNQMTEACLNQSSDALLSRDLIMKEDYELVSTKPTRTSKVRQLLDTTDIQGEEFAKVIVQKLKDNKQMGLQ has an abundance fitness of -0.616 ± 0.12.
For QWIQSKREDIVNQMTEACLNQSVDALLSRDLIMKEDYELVSTKPTRTSKVRQLLDTTDIQGEEFAKVIVQKLKDNKQMGLQ, the abundance fitness was -0.509 ± 0.11.
QWIQSKREDIVNQMTEACLNQSWDALLSRDLIMKEDYELVSTKPTRTSKVRQLLDTTDIQGEEFAKVIVQKLKDNKQMGLQ gave an abundance fitness of -0.911 ± 0.3.
Work on QWIQSKREDIVNQMTEACLNQSEDALLSRDLIMKEDYELVSTKPTRTSKVRQLLDTTDIQGEEFAKVIVQKLKDNKQMGLQ yielded an abundance fitness of -0.445 ± 0.21.
QWIQSKREDIVNQMTEACLNQSGDALLSRDLIMKEDYELVSTKPTRTSKVRQLLDTTDIQGEEFAKVIVQKLKDNKQMGLQ showed an abundance fitness of -0.67 ± 0.11.
With QWIQSKREDIVNQMTEACLNQSIDALLSRDLIMKEDYELVSTKPTRTSKVRQLLDTTDIQGEEFAKVIVQKLKDNKQMGLQ the abundance fitness was -0.918 ± 0.49.
In the case of QWIQSKREDIVNQMTEACLNQSRDALLSRDLIMKEDYELVSTKPTRTSKVRQLLDTTDIQGEEFAKVIVQKLKDNKQMGLQ, the abundance fitness is reported as -0.695 ± 0.079.
QWIQSKREDIVNQMTEACLNQSNDALLSRDLIMKEDYELVSTKPTRTSKVRQLLDTTDIQGEEFAKVIVQKLKDNKQMGLQ gave an abundance fitness of -0.282 ± 0.23.
Work on QWIQSKREDIVNQMTEACLNQSTDALLSRDLIMKEDYELVSTKPTRTSKVRQLLDTTDIQGEEFAKVIVQKLKDNKQMGLQ yielded an abundance fitness of -0.368 ± 0.12.
